From patent publication WO2022065344A1 (dated 2022)

T1: HTLV-1 envelope protein gp62 extracellular region (gp46), expressed in 293T cells together with GLUT1 (HTLV-1, UniProt P03381 21-312)
T1 construct: also called HTLV-1-expressing cells; gp62-expressing cells
T1 sequence: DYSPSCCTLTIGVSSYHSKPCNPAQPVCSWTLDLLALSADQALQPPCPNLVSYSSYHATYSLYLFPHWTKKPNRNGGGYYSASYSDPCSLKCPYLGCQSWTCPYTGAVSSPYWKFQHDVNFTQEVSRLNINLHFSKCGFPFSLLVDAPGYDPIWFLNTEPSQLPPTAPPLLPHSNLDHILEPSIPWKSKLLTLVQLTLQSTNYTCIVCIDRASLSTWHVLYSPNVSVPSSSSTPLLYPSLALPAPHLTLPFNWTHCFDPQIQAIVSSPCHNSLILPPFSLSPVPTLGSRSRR

T2: HTLV-1 gp46 peptide 180-204 (HTLV-1)
T2 construct: also called HTLV-1 gp46 peptide 180 to 204; gp46 antigen peptide
T2 peptide: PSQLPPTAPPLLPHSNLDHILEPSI

T3: gp46 partial peptide 188-199 with L196 replaced by Ala (HTLV-1)
T3 peptide: PPLLPHSNADHI

T4: gp46 partial peptide 188-199 with L191 replaced by Ala (HTLV-1)
T4 peptide: PPLAPHSNLDHI

T5: gp46 partial peptide 188-199 with S194 replaced by Ala (HTLV-1)
T5 peptide: PPLLPHANLDHI

T6: gp46 partial peptide 188-199 with N195 replaced by Ala (HTLV-1)
T6 peptide: PPLLPHSALDHI

T7: gp46 partial peptide 188-199 with H193 replaced by Ala (HTLV-1)
T7 peptide: PPLLPASNLDHI

T8: gp46 partial peptide 188-199 with P192 replaced by Ala (HTLV-1)
T8 peptide: PPLLAHSNLDHI

B1: rat anti-HTLV-1 monoclonal antibody rMAb1 (antibody, V domains shown)
VH: EIQLVESGGGLVQPGRSMKLSCEALGFTFGGFPMAWVRQAPTKGLEWVATISPGAVNTYYGDSVKGRFTISRDNAKSTLYLQMNSLRSEDTATYYCVREGYGFSSFEYWGQGVTVTVSP
VL: DIVMTQSPSSLAVSAGETVTIKCKSSQTLLYSGNQKNYLAWYQQKPGQSPKLLICWASTRQSSVPDRFIGSGSGTDFTLTISSVQAEDLAIYYCQQYFATPITFGSGTKLEIKR
B2: humanized anti-HTLV-1 antibody hMAb1_H1L12 (antibody, human IgG1, kappa, V domains shown)
VH: EVQLVESGGGLVQPGGSLRLSCAASGFTFGGFPMAWVRQAPGKGLEWVSTISPGAVNTYYADSVKGRFTISRDNSKNTLYLQMNSLRAEDTAVYYCAREGYGFSSFEYWGQGTLVTVSS
VL: DIQMTQSPSSLSASVGDRVTITCKSSQTLLYSGNQKNYLAWYQQKPGKAPKLLISWASTRQSGVPSRFSGSGSGTDFTLTISSLQPEDFATYYCQQYFATPITFGQGTKVEIKR
notes: Human IgG1, kappa
B3: rat anti-HTLV-1 monoclonal antibody rMAb98 (antibody, V domains shown)
VH: EVQLVESGGGLVQPGWSMKLSCAASGFTFSGSPMGWVRQAPTKGLEWVATISPTGATTYYRDSVKGRFTISRDNAKATLYLQMNSLRSEDTATYYCTREGYGYSSFDYWGQGVMVTVSS
VL: DIVMTQSPSSLAVSAGETVTINCKSSQSLLFSGYQKNYLAWYQQKPGQSPRLLIYWASTRQSGVPDRFIGSGSGTDFTLTVSSVQAEDVATYYCQQYFDTPLTFGSGTKLEIKR

Legend:
[1] = biological target: T1, HTLV-1 envelope protein gp62 …; experiment: flow cytometry on 293T cells transfected with HTLV-1 and GLUT1 vectors against pcDNA3.1 control cells
[2] = biological target: T2, HTLV-1 gp46 peptide 180-204; experiment: SPR, Biacore T200, antibody amine-coupled on CM5 chip, peptide as analyte, affinity (steady-state) analysis
[3] = biological target: T3, gp46 partial peptide 188-199 with L196 …; experiment: ELISA on Ala-substituted gp46 188-199 peptides
[4] = biological target: T4, gp46 partial peptide 188-199 with L191 …; experiment: ELISA on Ala-substituted gp46 188-199 peptides
[5] = biological target: T5, gp46 partial peptide 188-199 with S194 …; experiment: ELISA on Ala-substituted gp46 188-199 peptides
[6] = biological target: T6, gp46 partial peptide 188-199 with N195 …; experiment: ELISA on Ala-substituted gp46 188-199 peptides
[7] = biological target: T7, gp46 partial peptide 188-199 with H193 …; experiment: ELISA on Ala-substituted gp46 188-199 peptides
[8] = biological target: T8, gp46 partial peptide 188-199 with P192 …; experiment: ELISA on Ala-substituted gp46 188-199 peptides

| Binder | binding result [1] | Kd [2] [nM] | binding result [3] | binding result [4] | binding result [5] | binding result [6] | binding result [7] | binding result [8] |
| --- | --- | --- | --- | --- | --- | --- | --- | --- |
| B1 | binds | 3.49 | binds | binds | binds | binds | binds | binds |
| B2 | – | – | binds | binds | binds | binds | binds | binds |
| B3 | binds | – | – | – | – | – | – | – |
